Measurements taken from the DeepSol protein solubility set.

Assay: soluble on expression in E. coli; label from the status in PepcDB or PDB records
For “GPGSMLRPTCPVAKNLTSFATKGTMRGGIPRIYYTWMKPGSATRRRFEKMRNPFVNLETGTSLYFRDTRDSAEAVAHAADSKGLKGMDNGVDLYNEYKIVPDLYPEGFQWKHKLNTEYNQWRSNTWLTPELIPQEHRGRFLCNFQLNIVAYDMRVVKFSPKDHRQWIYCVLYVGTGKGIAGFGRAVAPSTQEARNEAIREAFSNIIAVDLEQEGPMYPVRINADGARVLLYPARRIIANFRVADILCAFGFQNAGCKINLKASNNPKAPTHTVEGVFEAVKALRSVSEIAASRGKVPHSLVYNIYPYLEEMRRRKGMMAMHPPGKDGIFMPNRVVDNRMPDHLKKGYYDDVYWKDFFAGSKEQLNEPKMGLRGDELRAQLEESQGRTAKRSNRRTLDDVLRRLGKTSRDLGALQVVNPRLDAKLPTHMKRNYLLH”, the “soluble on expression in E. coli” value was “not soluble”.
In the case of “MSLNLVSEQLLAANGLKHQDLFAILGQLAERRLDYGDLYFQSSYHESWVLEDRIIKDGSYNIDQGVGVRAISGEKTGFAYADQISLLALEQSAQAARTIVRDSGDGKVQTLGAVEHSPLYTSVDPLQSMSREEKLDILRRVDKVAREADKRVQEVTASLSGVYELILVAATDGTLAADVRPLVRLSVSVLVEEDGKRERGASGGGGRFGYEFFLADLDGEVRADAWAKEAVRMALVNLSAVAAPAGTMPVVLGAGWPGVLLHEAVGHGLEGDFNRRGTSVFSGQVGELVASELCTVVDDGTMVDRRGSVAIDDEGTPGQYNVLIENGILKGYMQDKLNARLMGMTPTGNGRRESYAHLPMPRMTNTYMLPGKSTPQEIIESVEYGIYAPNFGGGQVDITSGKFVFSTSEAYLIENGKVTKPVKGATLIGSGIETMQQISMVGNDLKLDNGVGVCGKEGQSLPVGVGQPTLKVDNLTVGGTA”, the “soluble on expression in E. coli” value was “soluble”.
In the case of “MGSDKIHHHHHHMKQVSIIGAGIGGLTAAVRLQKLGYNVTIYEQNAQPGGKMNQIVSQGFTFDVGPTIVMMKDIYEEVFRFCGVDPHNYLPFEEVQPLMHLVFGDQSSLDLSRDLPTLIAEINRIAPDDVNGMLNFLADIYHRYTIAKPNFLERSFRNWRDFYNLPALYAGLQLRTFNNAYKNIAKFIKNENLRNSLAFQTLYIGISPYQGPSLYNIIPMIELFYGVYFLKGGMYTVVNSLVKLFKEQGGTLKLATPVQEIIIKDKVAVGIRVNNHPIHSDYVLCNADFPTAMTTLIPNEQDRGQYTDQKIAKMDYSCSCLVLYLGLDKKYPTEALHTIHFAQDFSKNVADLFDNGKLPEDPSYYVYVPSKMDPSLAPENSEALYVLVPVPELSKFNDWSPTTLKNYRQLIINKLRQTATFSDIEQHIVVEKQFTPVDFKEQFGAYNGATFGLRPTLKQSNYYRPHNKFDYADHLYFCGSSTHPGAGVPIVMQSAKLAVEELIKDDQTNA”, the “soluble on expression in E. coli” value was “not soluble”.
In the case of “MDLWLLANDESCLRHQAFWHSWQGPLVERQQSNNITLTDVLEGVHAYLQGHLDDFEIQEAFVTKELPLKLAQLRERWERYVVLNAELAARGRGGFERNRRDD”, the “soluble on expression in E. coli” value was “soluble”.
For “MSLDSNTVAVNPDSLILKRFLKTNQLNGIMIVTGPDGKAQVFSNQSKVDGSPVSIKDYFPLASLQKLITGVAIQQLIDKGKLSLNTPLSKYYPQIENSENITIQNLLTHTSGLADRKEVPQQVLTTQEQQLDFSLTNYRVTYRKKWKYANINYALLAGIISQISGQNYATYVRQHFLTAGKGWHFKKYIQIKDKSKLAALSVMDQSTTWDKLSKEVTSTFGAGDYASRPVDYWKFMMAFINDQFVPVSEYQRSMKMTSKSYYGGLYISQKMLHANGGGFDTYSCFAYSNPKTKQVMVLFITNGKYKRVKSLAAKAFKLYADSYALRKNETSEGHHHHHH”, the “soluble on expression in E. coli” value was “soluble”.
For “MGSDKIHHHHHHMKVVPAQRCVYSFSANMAPVEEVYPGEQVVFETLDALGGSYDKIDFSKVNPATGPVFVNGVKPGDTLKVRIKRIELPRRGMIVTGKGFGVLGDEVEGFHTKELEIEKWAVLFDGVRIPIHPMVGVIGVAPQEGEYPTGTAHRHGGNMDTKEITENVTVHLPVFQEGALLALGDVHATMGDGEVCVSACEVPAKVVVEIDVSKEEIKWPVVETNDAYYIIVSLPDIEEALKEVTRETVWFIQRRKTIPFTDAYMLASLSVDVGISQLVNPAKTAKARIPKYIFTGV”, the “soluble on expression in E. coli” value was “soluble”.
In the case of “SLSGGKYVDSEGHLYTVPIREQGNIYKPNNKAMADELSEKQVYDAHTKEIDLVNRDPKHLNDDVVKIDFEDVIAEPEGTHSFDGIWKASFTTFTVTKYWFYREG”, the “soluble on expression in E. coli” value was “not soluble”.
With “MRILVSNDDGIFSPGIKALGLAMRALGEVFVVAPDMEQSAVGHGITVRRPLRFKHTQSAGFGEIPAYRVDGTPADCVVLGVHLLGRPDLVVSGINLGVNLGLDLTHSGTVAAALEGASLGIPSIAFSLDTSGEVLDFQEAARWALAIARAVGERGLPPGVLLNVNFPASRPKGLLVTRLSTHRFEDQVVERLDPEGKPYYWIAGTPAGEEEEGTDLWAVRRGYVSVTPVSLDLTAHGFLEALSGLLEGVAP” the “soluble on expression in E. coli” value was “soluble”.
In the case of “MGSSHHHHHHSSGLVPRGSHMKKNSLALSLTADQMVSALLDAEPPILYSEYDPTRPFSEASMMGLLTNLADRELVHMINWAKRVPGFVDLTLHDQVHLLECAWLEILMIGLVWRSMEHPVKLLFAPNLLLDRNQGKCVEGMVEIFDMLLATSSRFRMMNLQGEEFVCLKSIILLNSGVYTFLSSTLKSLEEKDHIHRVLDKITDTLIHLMAKAGLTLQQQHQRLAQLLLILSHIRHMSNKGMEHLYSMKCKNVVPLYDLLLEMLDAHRLHAP”, the “soluble on expression in E. coli” value was “not soluble”.
For “AWQAAVASNEPFGEAQLAQRIRRYLPEQGQLFVGNSLVVRLIDALAQLPAGYPVYSNRGASGIDGLIATAAGVQRASARPTLAIVGDLSALYDLNSLALLRQASAPLVLIVVNNNGGQIFSMLPTPQDERRQFYLMPQDVDFSHAAVMFGLAYHRPDDWPSLDEALAGAWRRAGATVIELAVNETDG”, the “soluble on expression in E. coli” value was “not soluble”.
In the case of “MSGNQNGENVQQKKEKMCSIGETIYTWTQNKHATTYVGTYTKAFFSGEVCREIREHDEFLGMSFSSFF”, the “soluble on expression in E. coli” value was “not soluble”.
In the case of “MGSDKIHHHHHHMKELAIASRDLVSPDGLAGYLRFVNAQPLLRPEEERDLARRLRDHGDVDAAKDLVLSHLRFVVRVARGYRGYGLQEADLIQEGNIGLMKAVKRYDPDHGVRLVSFAVHWVKAEIHEFILRNWRIVKVATTKAQRKLFFNLRSSRSHTGWMSGEESAAMADDLGVTQAQVLEMEGRMSGYDYSLNLEPDEEREGGRAPDLADPTGSPIEQLVERDWDQQQHRALHTALSALPQRDRYIIENRWLSDDPKTLQVLGDELGVSAERVRQLEKSSMGKLRQQMLTTAAVA”, the “soluble on expression in E. coli” value was “not soluble”.
For “GILAEAHGTRPDLTDQPLPDADHTWYTDGSSLLQEGQRKAGAAVTTETEVIWAKALPAGTSAQRAELIALTQALKMAEGKKLNVYTDSRYAFATAHLTSEGKEIKNKDEILALLKALFLPKRLSIIHCPGHQKGHSAEARGNRMADQAARKAAITETPDTSTLL”, the “soluble on expression in E. coli” value was “soluble”.
In the case of “MKVIMTTKVDKASMNIMNKLIENFGFKETEYVFDGNPVYKRGDVLILTTNDEMIYYDYLDREIENQLGFKPEIIAFASRHSSKQKLPALTTHVTGNWGKAMYGGKDESFAVAIPSAMKLSLLKMSELNDLGWTVCYEATHHGPTELEVPSFFIEIGSSEEEWINDRAGEIIAETIIYVLDNYEKGRSKFKVALGIGGGHYAPKQTKRALEGDLAFGHILPKYAQPVSRDVMIKALNRFGEKVEAIYVDWKGSRGETRQLAKSLAQELGLEFIKD”, the “soluble on expression in E. coli” value was “soluble”.
With “MFSCISPQKSPAFSPEQEKMLKSNRANEPQSFVKGNDAAKSDLIDLEEVVTNWAKTMFDVTKSKAEGKIKKKYLSYNINWTKLFQECSEPTYTILGAKPNVVDAKQDEKVIFKTTFTNTTQREQEYSFKTERCTRSSSTVIIEKGVCRGAEVSLKLKTPCEVVEANAGFTTEVMLNHIGENTSEEELTWGVDSCVKVPPGAETVAELVIIEDIVTRDFRIENRLSGKVLVTITNLKENNSLVTIIEGNICDIIRGMPDYTAKGFRFDGPAAIYETRGQCIFRFGIEQKVRINEFSLNSSRRY” the “soluble on expression in E. coli” value was “not soluble”.
For “MGSDKIHHHHHHMRYVKLHSEYFPEFFNRLKEVGRVYGPVRHNSTYRFEEVNSIDELSLDYTRTILPPKKFFIRPRDAMFKIQKNEVTEVDGDGKFVLFGVHSCDIHGIKILDKVYLSNPPDPYYERRRKNAFIVGISCMPDEYCFCKSLGTDFAMDGFDIFLHELPDGWLVRVGSVKGHEFVWENQDIFDDVTEEDLRNFKEFEEKRAKAFKKSLNKEGLADILDLAFTSKVWKKYAEKCLGCGNCTIVCPTCRCYEVCDTWVRAYEALRMRRYDSCFMPTHGLVAGGHNFRPTRLDRFRHRYYCKNYFDPEAGFNCVGCGRCDEFCPARIEHVKVLDEVREGLI”, the “soluble on expression in E. coli” value was “not soluble”.
